Data published in US20040018971A1 (published 2004).
Where no end group is shown, it is not given here. [ ]: non-standard residue; d: D form. Abu = CC[C@H](N)C(=O)O

Key:
HLA-A*6802 [1] = molecular target: HLA-A*6802 (human); assay: competition with 125I probe peptide for purified HLA
HLA-A*0201 [2] = molecular target: T1, HLA-A*0201 (human); assay: as above
T1 construct: also called HLA-A2.1

HLA-A*0202 [3] = molecular target: HLA-A*0202 (human); assay: as above
HLA-A*0206 [4] = molecular target: HLA-A*0206 (human); assay: as above
HLA-A*0203 [5] = molecular target: HLA-A*0203 (human); assay: as above
[6] = molecular target: HLA-DR3 (DRB1*0301), purified HLA class II molecule (human); assay: competition with 125I-labelled probe peptide, purified HLA-DR
HLA-A*0206 [7] = molecular target: HLA-A*0206 (human); assay: competition with 125I-labelled probe peptide for purified HLA, gel filtration
HLA-A*0201 [8] = molecular target: T2, HLA-A*0201 (human); assay: as above
T2 construct: also called HLA-A2.1

HLA-A*0202 [9] = molecular target: HLA-A*0202 (human); assay: as above
HLA-A*0203 [10] = molecular target: HLA-A*0203 (human); assay: as above
[11] = molecular target: HLA-DR1 (DRB1*0101), purified HLA class II molecule (human); assay: competition with 125I-labelled probe peptide, purified HLA-DR
[12] = molecular target: HLA-DR7 (DRB1*0701), purified HLA class II molecule (human); assay: as above
[13] = molecular target: HLA-DR4w4 (DRB1*0401), purified HLA class II molecule (human); assay: as above
HLA-DR3 (DRB1*0301) = molecular target: T3, HLA-DR3 (DRB1*0301) (human); assay: competition with 125I-labelled probe peptide on purified HLA-DR, gel filtration; IC50 of standard peptide / IC50 of test peptide
T3 construct: Purified HLA class II molecule

[14] = molecular target: HLA-A*1101 (purified HLA class I molecule) (human); assay: inhibition of 125I probe peptide binding to purified HLA; ratio to standard peptide
[15] = molecular target: HLA-A*3101 (purified HLA class I molecule) (human); assay: as above
[16] = molecular target: HLA-A*3301 (purified HLA class I molecule) (human); assay: as above
[17] = molecular target: T4, HLA-A*0301 (purified HLA class I molecule) (human); assay: as above
T4 construct: also called A3

[18] = molecular target: HLA-A*6801 (purified HLA class I molecule) (human); assay: as above
HLA-A*0203 [19] = molecular target: T5, HLA-A*0203 (human); assay: competition for purified HLA vs 125I-labelled probe peptide, gel filtration
T5 construct: purified HLA class I molecule

HLA-A*0206 [20] = molecular target: T6, HLA-A*0206 (human); assay: as above
T6 construct: purified HLA class I molecule

HLA-A*0201 [21] = molecular target: T7, HLA-A*0201 (human); assay: as above
T7 construct: also called HLA-A2.1

HLA-A*0202 [22] = molecular target: T8, HLA-A*0202 (human); assay: as above
T8 construct: purified HLA class I molecule

HLA-DRB1*0401 = molecular target: T9, HLA-DRB1*0401 (human); assay: competition with 125I-labeled standard peptide, purified HLA-DR, gel filtration
T9 construct: also called DR4w4

HLA-DRB1*0701 = molecular target: T10, HLA-DRB1*0701 (human); assay: as above
T10 construct: also called DR7

HLA-DRB1*0101 = molecular target: T11, HLA-DRB1*0101 (human); assay: as above
T11 construct: also called DR1

HLA-A*6802 [23] = molecular target: HLA-A*6802 (human); assay: competition with 125I-labelled probe peptide for purified HLA, gel filtration
HLA-A*6802 [24] = molecular target: T12, HLA-A*6802 (human); assay: competition for purified HLA vs 125I-labelled probe peptide, gel filtration
T12 construct: purified HLA class I molecule

HLA-A*6801 = HLA-A*6801 (human); assay: competition with 125I-labelled standard peptide for purified HLA; gel filtration

AT[Abu]RWGLLV [Her2/neu.5.T2B3V9 ATBRWGLLV]
IC50 (HLA-A*6802 [1]): 1740 nM
IC50 (HLA-A*0201 [2]): 16700 nM
IC50 (HLA-A*0202 [3]): 215 nM
IC50 (HLA-A*0206 [4]): 2180 nM

AM[Abu]RWGLLV [Her2/neu.5M2B3V9 AMBRWGLLV]
IC50 (HLA-A*0201 [2]): 36 nM
IC50 (HLA-A*0202 [3]): 473 nM
IC50 (HLA-A*0203 [5]): 16 nM
IC50 (HLA-A*0206 [4]): 726 nM

AV[Abu]RWGLLV [Her2/neu.5V2B3V9 AVBRWGLLV]
IC50 (HLA-A*6802 [1]): 4710 nM
IC50 (HLA-A*0201 [2]): 10000 nM
IC50 (HLA-A*0202 [3]): 215 nM
IC50 (HLA-A*0203 [5]): 141 nM
IC50 (HLA-A*0206 [4]): 2180 nM

TAPLQPEQLQVFETL (also called Her2/neu.389) [HER2/neu DR supermotif exemplary 15-mer TAPLQPEQLQVFETL (position 389)]
relative binding ratio [6]: 0.0023 ratio (IC50 standard / IC50 test)

VLIQRNPQV [Her2/neu.153V9]
IC50 (HLA-A*0206 [7]): 385 nM
IC50 (HLA-A*0201 [8]): 55 nM
IC50 (HLA-A*0202 [9]): 768 nM
IC50 (HLA-A*0203 [10]): 135 nM

VHTVPWDQLFRNPHQ (also called Her2/neu.477) [HER2/neu DR supermotif exemplary 15-mer VHTVPWDQLFRNPHQ (position 477)]
relative binding ratio [6]: 0.022 ratio (IC50 standard / IC50 test)

VVGILLVVVLGVVFG (also called Her2/neu.658) [HER2/neu DR supermotif exemplary 15-mer VVGILLVVVLGVVFG (position 658)]
relative binding ratio [11]: -0.0004 ratio (IC50 standard / IC50 test)
relative binding ratio [12]: -0.0013 ratio (IC50 standard / IC50 test)
relative binding ratio [13]: -0.0025 ratio (IC50 standard / IC50 test)

FVVIQNEDLGPASPL (also called Her2/neu.986) [HER2/neu peptide FVVIQNEDLGPASPL (position 986)]
relative binding ratio (HLA-DR3 (DRB1*0301)): -0.0025 ratio

CVARCPSGVK (also called Her2/neu.596 (10-mer)) [HER2/neu peptide, position 596, 10 amino acids]
relative binding ratio [14]: 0.0042 ratio (IC50 standard / IC50 test)
relative binding ratio [15]: 0.0008 ratio (IC50 standard / IC50 test)
relative binding ratio [16]: 0.0064 ratio (IC50 standard / IC50 test)
relative binding ratio [17]: 0.022 ratio (IC50 standard / IC50 test)
relative binding ratio [18]: 0.0093 ratio (IC50 standard / IC50 test)

VLIQRNPQV (analog of Her2/neu.153) [Her2/neu.153.V9]
IC50 (HLA-A*0203 [19]): 135 nM
IC50 (HLA-A*0206 [20]): 385 nM
IC50 (HLA-A*0201 [21]): 55 nM
IC50 (HLA-A*0202 [22]): 768 nM

B1: HER2/neu DR supermotif exemplary peptide LLVVVLGVVFGILIK (position 662) (peptide)
peptide: LLVVVLGVVFGILIK
notes: synthetic 15-mer; also called Her2/neu.662
relative binding ratio (HLA-DRB1*0401): -0.0025 ratio (standard IC50 / test IC50)
relative binding ratio (HLA-DRB1*0701): 0.0019 ratio (standard IC50 / test IC50)
relative binding ratio (HLA-DRB1*0101): -0.0008 ratio (standard IC50 / test IC50)

CVNCSQFLR (also called Her2/neu.528) [HER2/neu peptide, position 528, 9 amino acids]
relative binding ratio [14]: 0.031 ratio (IC50 standard / IC50 test)
relative binding ratio [15]: 0.53 ratio (IC50 standard / IC50 test)
relative binding ratio [16]: 0.58 ratio (IC50 standard / IC50 test)
relative binding ratio [17]: 0.0015 ratio (IC50 standard / IC50 test)
relative binding ratio [18]: 0.44 ratio (IC50 standard / IC50 test)

B2: HER2/neu DR supermotif exemplary peptide PSTFKGTPTAENPEY (position 1234) (peptide)
peptide: PSTFKGTPTAENPEY
notes: synthetic 15-mer; also called Her2/neu.1234
relative binding ratio (HLA-DRB1*0401): -0.0032 ratio (standard IC50 / test IC50)
relative binding ratio (HLA-DRB1*0701): -0.0011 ratio (standard IC50 / test IC50)
relative binding ratio (HLA-DRB1*0101): -0.0005 ratio (standard IC50 / test IC50)

SLISAVVGV [Her2/neu.653.L2V9]
IC50 (HLA-A*0206 [7]): 20 nM
IC50 (HLA-A*6802 [23]): 110 nM
IC50 (HLA-A*0201 [8]): 7.1 nM
IC50 (HLA-A*0202 [9]): 10 nM
IC50 (HLA-A*0203 [10]): 16 nM

KTFGSLAFV (analog of Her2/neu.369) [Her2/neu.369.T2V9]
IC50 (HLA-A*0203 [19]): 1010 nM
IC50 (HLA-A*0201 [21]): 35 nM
IC50 (HLA-A*6802 [24]): 17 nM
IC50 (HLA-A*0202 [22]): 13 nM

YLIMVKCWMV [Her2/neu.952L2V10]
IC50 (HLA-A*0206 [7]): 18 nM
IC50 (HLA-A*6802 [23]): 84 nM
IC50 (HLA-A*0201 [8]): 13 nM
IC50 (HLA-A*0202 [9]): 56 nM

VEPLTPSGAMPNQAQ (also called Her2/neu.697) [HER2/neu DR supermotif exemplary 15-mer VEPLTPSGAMPNQAQ (position 697)]
relative binding ratio [11]: -0.0008 ratio (IC50 standard / IC50 test)
relative binding ratio [12]: -0.0011 ratio (IC50 standard / IC50 test)
relative binding ratio [13]: -0.0025 ratio (IC50 standard / IC50 test)

B3: HER2/neu DR supermotif exemplary peptide ITDFGLARLLDIDET (position 861) (peptide)
peptide: ITDFGLARLLDIDET
notes: synthetic 15-mer; also called Her2/neu.861
relative binding ratio (HLA-DRB1*0401): -0.0032 ratio (standard IC50 / test IC50)
relative binding ratio (HLA-DRB1*0701): -0.0011 ratio (standard IC50 / test IC50)
relative binding ratio (HLA-DRB1*0101): 0.0048 ratio (standard IC50 / test IC50)

DLTLGLEPSEEEAPR (also called Her2/neu.1058) [HER2/neu peptide DLTLGLEPSEEEAPR (position 1058)]
relative binding ratio (HLA-DR3 (DRB1*0301)): -0.0025 ratio

B4: HER2/neu DR supermotif exemplary peptide QGFFCPDPAPGAGGM (position 1028) (peptide)
peptide: QGFFCPDPAPGAGGM
notes: synthetic 15-mer; also called Her2/neu.1028
relative binding ratio (HLA-DRB1*0401): 0.023 ratio (standard IC50 / test IC50)
relative binding ratio (HLA-DRB1*0701): -0.0011 ratio (standard IC50 / test IC50)
relative binding ratio (HLA-DRB1*0101): -0.0005 ratio (standard IC50 / test IC50)

YLIMVK[Abu]WMV (also called YLIMVKBWMV) [Her2/neu.952L2B7V10]
IC50 (HLA-A*0206 [7]): 11 nM
IC50 (HLA-A*6802 [23]): 851 nM
IC50 (HLA-A*0201 [8]): 7.2 nM
IC50 (HLA-A*0202 [9]): 66 nM
IC50 (HLA-A*0203 [10]): 77 nM

RSLLEDDDMGDLVDA (also called Her2/neu.1006) [HER2/neu DR supermotif exemplary 15-mer RSLLEDDDMGDLVDA (position 1006)]
relative binding ratio [6]: 0.008 ratio (IC50 standard / IC50 test)

DLSYMPIWK (also called Her2/neu.607 (9-mer)) [HER2/neu peptide, position 607, 9 amino acids]
relative binding ratio [14]: 0.01 ratio (IC50 standard / IC50 test)
relative binding ratio [15]: 0.0002 ratio (IC50 standard / IC50 test)
relative binding ratio [16]: 0.088 ratio (IC50 standard / IC50 test)
relative binding ratio [17]: 0.0005 ratio (IC50 standard / IC50 test)
relative binding ratio [18]: 0.031 ratio (IC50 standard / IC50 test)

TQLFEDNYALAVLDN (also called Her2/neu.105) [HER2/neu DR supermotif exemplary 15-mer TQLFEDNYALAVLDN (position 105)]
relative binding ratio [11]: 0.053 ratio (IC50 standard / IC50 test)
relative binding ratio [12]: 0.016 ratio (IC50 standard / IC50 test)
relative binding ratio [13]: -0.0025 ratio (IC50 standard / IC50 test)

MVLESILRR [Her2/neu.889.V2]
IC50 (HLA-A*6801): 22 nM

KTFGSLAFV [Her2/neu.369T2V9]
IC50 (HLA-A*6802 [23]): 17 nM
IC50 (HLA-A*0201 [8]): 35 nM
IC50 (HLA-A*0202 [9]): 13 nM
IC50 (HLA-A*0203 [10]): 1010 nM

GTQRCEKCSK (also called Her2/neu.327 (10-mer)) [HER2/neu peptide, position 327, 10 amino acids]
relative binding ratio [14]: 0.61 ratio (IC50 standard / IC50 test)
relative binding ratio [15]: 0.014 ratio (IC50 standard / IC50 test)
relative binding ratio [16]: 0.0012 ratio (IC50 standard / IC50 test)
relative binding ratio [17]: 0.021 ratio (IC50 standard / IC50 test)
relative binding ratio [18]: 0.01 ratio (IC50 standard / IC50 test)

VCPLHNQEVTAEDGT (also called Her2/neu.314) [HER2/neu DR supermotif exemplary 15-mer VCPLHNQEVTAEDGT (position 314)]
relative binding ratio [11]: -0.0004 ratio (IC50 standard / IC50 test)
relative binding ratio [12]: -0.0013 ratio (IC50 standard / IC50 test)
relative binding ratio [13]: -0.0025 ratio (IC50 standard / IC50 test)

AIKVLRENTSPKANK (also called Her2/neu.751) [HER2/neu peptide AIKVLRENTSPKANK (position 751)]
relative binding ratio (HLA-DR3 (DRB1*0301)): 0.0075 ratio
